According to paper PMC9666535:
pKd: −log10 of the molar value.

Assays:
PCNA (Homo sapiens) = PCNA (Homo sapiens) (UniProt P12004); settings: cited from earlier work
PCNA WT = PCNA WT (UniProt P12004); assay: single-molecule FRET of DNA bending (TIRF); internally labeled double flap DNA on the surface, PCNA pre-loaded by RFC and trapped on it (Sub#12) or absent (Sub#13); Polδ Exo^− 250 nM in solution; 50 ms resolution; 50 mM HEPES-KOH pH 7.5, 100 mM KCl, 10 mM MgCl2; settings: other: single-molecule FRET of DNA bending (TIRF)
[1] = molecular target: FEN1 D181A•PCNA complex prebound on the nick product (FEN1•PCNA•NP) (human) (UniProt P39748); assay: other fluorescence titration; apparent; FeSQ quenching of Cy3 on the DNA: FEN1 D181A (250 nM) prebound to PCNA-loaded nick DNA (Sub#28), Polδ titrated; quadratic fit (Eq. 1); 22 °C, 50 mM HEPES-KOH pH 7.5, 100 mM KCl, 10 mM MgCl2, 1 mM ATP
Sequence of FEN1 D181A•PCNA complex prebound on the nick product (FEN1•PCNA•NP) (human) (P39748 2-380 D181A, chain 1 of 2): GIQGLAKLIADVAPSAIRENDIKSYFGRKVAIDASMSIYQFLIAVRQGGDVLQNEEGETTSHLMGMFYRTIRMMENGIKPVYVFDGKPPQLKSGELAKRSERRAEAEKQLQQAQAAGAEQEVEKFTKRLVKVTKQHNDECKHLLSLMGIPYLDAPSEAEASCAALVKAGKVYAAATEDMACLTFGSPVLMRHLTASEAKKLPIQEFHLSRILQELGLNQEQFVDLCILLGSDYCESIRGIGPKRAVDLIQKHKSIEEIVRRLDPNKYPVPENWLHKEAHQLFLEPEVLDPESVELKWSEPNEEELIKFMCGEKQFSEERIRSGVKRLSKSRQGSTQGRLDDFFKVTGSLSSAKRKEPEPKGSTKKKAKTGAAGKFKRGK
Sequence of FEN1 D181A•PCNA complex prebound on the nick product (FEN1•PCNA•NP) (human) (P12004 whole entry, chain 2 of 2, further chain): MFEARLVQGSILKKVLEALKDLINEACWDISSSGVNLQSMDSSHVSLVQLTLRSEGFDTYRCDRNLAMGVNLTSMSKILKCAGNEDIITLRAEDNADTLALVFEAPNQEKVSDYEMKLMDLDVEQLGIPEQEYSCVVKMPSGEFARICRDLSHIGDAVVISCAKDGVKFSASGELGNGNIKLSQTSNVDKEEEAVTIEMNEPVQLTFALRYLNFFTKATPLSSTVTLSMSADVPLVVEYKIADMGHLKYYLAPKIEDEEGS

Sequence of FEN1 (P39748 whole entry): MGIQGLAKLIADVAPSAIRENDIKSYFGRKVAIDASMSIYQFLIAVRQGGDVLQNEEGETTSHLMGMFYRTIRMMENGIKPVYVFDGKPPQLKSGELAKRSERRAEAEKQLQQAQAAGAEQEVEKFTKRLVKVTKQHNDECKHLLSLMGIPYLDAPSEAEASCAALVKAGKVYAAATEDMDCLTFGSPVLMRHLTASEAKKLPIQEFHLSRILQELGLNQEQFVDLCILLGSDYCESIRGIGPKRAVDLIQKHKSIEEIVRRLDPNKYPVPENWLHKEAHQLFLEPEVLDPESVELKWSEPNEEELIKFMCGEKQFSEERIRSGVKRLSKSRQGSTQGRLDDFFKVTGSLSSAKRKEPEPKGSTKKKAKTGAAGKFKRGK
Sequence of PCNA WT (P12004 whole entry): as the sequence (P12004 whole entry, chain 2 of 2, further chain) above
Sequence of PCNA (Homo sapiens) (P12004 whole entry): as the sequence (P12004 whole entry, chain 2 of 2, further chain) above

**Q.** With FEN1 (from UniProt P39748) as the substance, how does the pKd (PCNA (Homo sapiens)) read?
**A.** 7.15

**Q.** For Polδ Exo^− (D515V in p125), which “assembly yield of the Polδ•PCNA complex” value (PCNA WT) is on record?
**A.** the assembly yield was only ~70%

**Q.** With “Polδ Exo^− (D515V in p125) (from UniProt P28340 1-1107; Q9HCU8 1-107) (complex)” as the substance, how does the pKd [1] read?
**A.** 8.35
